{"source": "the supplement of paper PMC10567573", "parents": {"B1": {"name": "ZNF8 (parent)", "chain": "RTHTGEKPYTCSVCGKSFSRTTCL"}}, "data": [{"variants_of": "B1", "experiment": "protein stability index of a GFP-peptide fusion (GPS, HEK-293T) (PSI 1-6); higher = more stable", "conditions": "c terminus: a fixed tail appended", "values": [{"variant": "C14Q", "protein stability index": 2.17}, {"variant": "C14R", "protein stability index": 2.19}, {"variant": "C14S", "protein stability index": 2.41}, {"variant": "C14T", "protein stability index": 2.46}, {"variant": "C14V", "protein stability index": 3.13}, {"variant": "C14W", "protein stability index": 1.42}, {"variant": "C14Y", "protein stability index": 2.06}, {"variant": "G15A", "protein stability index": 1.88}, {"variant": "G15C", "protein stability index": 1.83}, {"variant": "G15D", "protein stability index": 2.36}, {"variant": "G15E", "protein stability index": 2.15}, {"variant": "G15F", "protein stability index": 2.28}, {"variant": "G15H", "protein stability index": 1.81}, {"variant": "G15I", "protein stability index": 1.46}, {"variant": "G15K", "protein stability index": 2.25}, {"variant": "G15L", "protein stability index": 1.99}, {"variant": "G15M", "protein stability index": 1.6}, {"variant": "G15N", "protein stability index": 1.92}, {"variant": "G15P", "protein stability index": 2.57}, {"variant": "G15Q", "protein stability index": 1.75}, {"variant": "G15R", "protein stability index": 2.17}, {"variant": "G15S", "protein stability index": 1.87}, {"variant": "G15T", "protein stability index": 1.65}, {"variant": "G15V", "protein stability index": 1.73}, {"variant": "G15W", "protein stability index": 1.43}, {"variant": "G15Y", "protein stability index": 1.32}, {"variant": "K16A", "protein stability index": 1.85}, {"variant": "K16C", "protein stability index": 2.16}, {"variant": "K16D", "protein stability index": 2.08}, {"variant": "K16E", "protein stability index": 2.61}, {"variant": "K16F", "protein stability index": 1.77}, {"variant": "K16G", "protein stability index": 2.41}, {"variant": "K16H", "protein stability index": 1.99}, {"variant": "K16I", "protein stability index": 1.74}, {"variant": "K16L", "protein stability index": 2.09}, {"variant": "K16M", "protein stability index": 2.2}, {"variant": "K16N", "protein stability index": 2.58}, {"variant": "K16P", "protein stability index": 1.81}, {"variant": "K16Q", "protein stability index": 2.6}, {"variant": "K16R", "protein stability index": 2.45}, {"variant": "K16S", "protein stability index": 1.75}, {"variant": "K16T", "protein stability index": 1.94}, {"variant": "K16V", "protein stability index": 1.96}, {"variant": "K16W", "protein stability index": 1.84}, {"variant": "K16Y", "protein stability index": 1.87}, {"variant": "S17A", "protein stability index": 2.48}, {"variant": "S17C", "protein stability index": 3.72}, {"variant": "S17D", "protein stability index": 2.55}, {"variant": "S17E", "protein stability index": 2.4}, {"variant": "S17F", "protein stability index": 1.48}, {"variant": "S17G", "protein stability index": 1.73}, {"variant": "S17H", "protein stability index": 2.69}, {"variant": "S17I", "protein stability index": 2.17}, {"variant": "S17K", "protein stability index": 2.87}, {"variant": "S17L", "protein stability index": 2.34}, {"variant": "S17M", "protein stability index": 2.03}, {"variant": "S17N", "protein stability index": 2.36}, {"variant": "S17P", "protein stability index": 3.07}, {"variant": "S17Q", "protein stability index": 2.58}, {"variant": "S17R", "protein stability index": 2.77}, {"variant": "S17T", "protein stability index": 2.63}, {"variant": "S17V", "protein stability index": 2.67}, {"variant": "S17W", "protein stability index": 1.82}, {"variant": "S17Y", "protein stability index": 2.14}, {"variant": "F18C", "protein stability index": 3.45}, {"variant": "F18D", "protein stability index": 2.92}, {"variant": "F18E", "protein stability index": 3.37}, {"variant": "F18G", "protein stability index": 2.84}, {"variant": "F18H", "protein stability index": 4.78}, {"variant": "F18I", "protein stability index": 1.54}, {"variant": "F18K", "protein stability index": 2.5}, {"variant": "F18L", "protein stability index": 3.4}, {"variant": "F18M", "protein stability index": 1.89}, {"variant": "F18N", "protein stability index": 2.53}, {"variant": "F18P", "protein stability index": 2.01}, {"variant": "F18Q", "protein stability index": 2.39}, {"variant": "F18R", "protein stability index": 2.56}, {"variant": "F18S", "protein stability index": 2.73}, {"variant": "F18T", "protein stability index": 2.48}, {"variant": "F18V", "protein stability index": 2.5}, {"variant": "F18W", "protein stability index": 2.43}, {"variant": "F18Y", "protein stability index": 2.23}, {"variant": "S19A", "protein stability index": 1.36}, {"variant": "S19C", "protein stability index": 3.7}, {"variant": "S19D", "protein stability index": 2.79}, {"variant": "S19E", "protein stability index": 2.67}, {"variant": "S19F", "protein stability index": 2.64}, {"variant": "S19G", "protein stability index": 2.35}, {"variant": "S19H", "protein stability index": 2.59}, {"variant": "S19I", "protein stability index": 2.07}, {"variant": "S19K", "protein stability index": 2.45}, {"variant": "S19L", "protein stability index": 2.51}, {"variant": "S19M", "protein stability index": 2.5}, {"variant": "S19N", "protein stability index": 2.67}, {"variant": "S19P", "protein stability index": 2.26}, {"variant": "S19Q", "protein stability index": 2.65}, {"variant": "S19R", "protein stability index": 3.8}, {"variant": "S19T", "protein stability index": 2.41}, {"variant": "S19V", "protein stability index": 3.91}, {"variant": "S19W", "protein stability index": 2.42}, {"variant": "S19Y", "protein stability index": 2.33}, {"variant": "R20A", "protein stability index": 2.55}, {"variant": "R20C", "protein stability index": 5.54}, {"variant": "R20D", "protein stability index": 3.46}, {"variant": "R20E", "protein stability index": 3.14}, {"variant": "R20F", "protein stability index": 2.15}, {"variant": "R20G", "protein stability index": 3.17}, {"variant": "R20H", "protein stability index": 3.75}, {"variant": "R20I", "protein stability index": 1.75}, {"variant": "R20K", "protein stability index": 2.76}, {"variant": "R20L", "protein stability index": 2.01}, {"variant": "R20M", "protein stability index": 2.18}, {"variant": "R20N", "protein stability index": 2.76}, {"variant": "R20P", "protein stability index": 2.75}, {"variant": "R20Q", "protein stability index": 2.87}, {"variant": "R20S", "protein stability index": 2.17}, {"variant": "R20T", "protein stability index": 2.77}, {"variant": "R20V", "protein stability index": 2.02}, {"variant": "R20W", "protein stability index": 2.47}, {"variant": "R20Y", "protein stability index": 2.91}, {"variant": "T21A", "protein stability index": 2.7}, {"variant": "T21C", "protein stability index": 5.19}, {"variant": "T21D", "protein stability index": 3.37}, {"variant": "T21E", "protein stability index": 2.67}, {"variant": "T21F", "protein stability index": 1.71}, {"variant": "T21G", "protein stability index": 3.27}, {"variant": "T21H", "protein stability index": 3.29}, {"variant": "T21I", "protein stability index": 2.15}, {"variant": "T21K", "protein stability index": 2.4}, {"variant": "T21L", "protein stability index": 2.83}, {"variant": "T21M", "protein stability index": 2.39}, {"variant": "T21N", "protein stability index": 1.99}, {"variant": "T21P", "protein stability index": 2.58}, {"variant": "T21Q", "protein stability index": 2.49}, {"variant": "T21R", "protein stability index": 2.39}, {"variant": "T21S", "protein stability index": 2.16}, {"variant": "T21V", "protein stability index": 2.36}, {"variant": "T21W", "protein stability index": 1.72}, {"variant": "T21Y", "protein stability index": 2.32}, {"variant": "T22A", "protein stability index": 2.56}, {"variant": "T22C", "protein stability index": 4.01}, {"variant": "T22D", "protein stability index": 2.27}, {"variant": "T22E", "protein stability index": 4.28}, {"variant": "T22F", "protein stability index": 2.3}, {"variant": "T22G", "protein stability index": 2.1}, {"variant": "T22H", "protein stability index": 2.24}, {"variant": "T22K", "protein stability index": 2.97}, {"variant": "T22L", "protein stability index": 1.9}, {"variant": "T22M", "protein stability index": 1.63}, {"variant": "T22N", "protein stability index": 2.94}, {"variant": "T22P", "protein stability index": 2.43}, {"variant": "T22Q", "protein stability index": 2.5}, {"variant": "T22R", "protein stability index": 1.8}, {"variant": "T22S", "protein stability index": 1.82}, {"variant": "T22V", "protein stability index": 2.16}, {"variant": "T22W", "protein stability index": 1.86}, {"variant": "T22Y", "protein stability index": 1.98}, {"variant": "C23A", "protein stability index": 2.21}, {"variant": "C23D", "protein stability index": 2.46}, {"variant": "C23E", "protein stability index": 3}, {"variant": "C23F", "protein stability index": 2.11}, {"variant": "C23G", "protein stability index": 2.43}, {"variant": "C23H", "protein stability index": 2.26}, {"variant": "C23K", "protein stability index": 2.28}, {"variant": "C23L", "protein stability index": 1.93}, {"variant": "C23M", "protein stability index": 2.19}, {"variant": "C23P", "protein stability index": 2.63}]}]}
